Experimental data reported in the DeepSol protein solubility set.

Test: soluble on expression in E. coli; label from the status in PepcDB or PDB records

Row | Sequence | soluble on expression in E. coli
1 | MAVLGRKSDRAVFDDGPVPRYEAVKQFIRSRIESGEWPPHHRVPSENDIVADLGVSRMTANRALRELASEGAITRVQGVGSFVAAHKGSTALLEVRNIADEIRERGHRHTSRITLLEEEQASTEVAEALGLAAKARVFHSIIVHAEDDVPIQIEDRFVNPAICPNYLEQDFTSMTPNVYLTLVAPITRTEQIVEAVLPKPWECKLLSIGRGEPCLMIRRRTWSEAANVTVAWLTYPGTRYRLEGVSQ | not soluble
2 | MAVLSFSFGGEITLKKPPESLKKYYPPASEKFEFLNNMHTMSTAFYAVQLNINDENWEKAKEWAQKLVKTYRETAEMVPEWKDYFDFSKADAYLNAVSSKNVDAVIKTARELGQTCAKCHRDNEVAVKIYYHFPDFHSVKVEDPIEFMEMDLGDFMKKLANSLKATNIYISQGEYEKAKEHGINFVERARAVKETCTKCHTKEAEVEAITGKEYDQALKALENLFNAEKLDTQKVAQNMKKVTVTCYTCHNVHLIPAKIKEALAK | not soluble
3 | MAVNGKTLIRRFNDYCPEWLAETGDPVGLHIGTLDKPIENVMVTLDVRPEVVAEAIEKQVDLIIAKHPPIFRPVKRLTTDNFQEKMYADLLKHDIAVYAAHTNMDIIDNGLNDWFCELLGIKQTTFLTKTHTVPYKKLAVFVPIDEAPQMREALGLAGAGSQGDYSKTSYSLIGTGRFTPTQGANPTIGEIGQESVVQEAKIEVIFPETKQEQVLAAMLQAHPYEEPAYDVYTIENQSKEFGLGRVGVLDKPVRFSYFVQQVKEAFQLDGLRVIAKDDTKMIQRVAICGGSGEKFYHDALRKQADVYITGDVYYHTAHDMIAEDLPVIDPGHYIEALCKPKLVELMNQWKQENEWAVSIFESEANTNPFRFK | not soluble
4 | MAVSQGVSLKEDLKDLVRKAEEIGRELSGKLKTNQLRKFHGHLTKIWSNYIYKKKDYRDNPEKFNEEILNELHFMKIFLAYQVGRDIEGISELKEILEPLIDEIKTPDEFEKFKKFYDAILAYHKFHSESEKSNRRTARR | not soluble
5 | MAVTGQVKWFNNEKGFGFIEVPGENDVFVHFSAIETDGFKSLEEGQKVSFEIEEGNRGPQAKNVIKL | not soluble
6 | MAVTQTRDAVIIGGGHNGLVCAFYLAKAGLKVTVCEARGVVGGAAVTEEFHPGFRNSVASYTVSLLNPRVIADMGLRELGLTFLERPISNFLPISDDKYIKLGGGLERTQEEFRKYSRRDAEVLPAYYAMLDEIGDILRDLAQETPPNLGDGLPGLLRALRQGGRLAFLSRQRKRDLLDLFTKSARDVLDGWFESEPVKAAFGFDAVVGNFASPDTPGSAYVLLHHTFGEVNGKKGAWGHAVGGMGAITQAMAKACEAAGVEILLDAPVEAVHIDGGKAAGVQLVDGRQIMAPIVSANVNPALLYKKLVPPSALTPDFRKAVDGYKNGSGTFRMNVALSELPSFTCLPGKETAEHHQSGIVIAPSLDYMDAAYRDAKGQGISKAPIVEMLIPSSLDTSLAPPGQHVASLFCQQFAPELPDGRSWDDAREAAADLIIDTVDQWAPGFKASVLGRMILSPLDLERKFGLIGGDIMHGHMSLDQLWATRPLLGHASHRAPIAGLYMCGAGTHPGGGVSGNPGRNAAREILRDKDFATAVKLSVVGRLEHHHHHH | not soluble
7 | MAWVVNKQSTQEELANRFRALVEANEILQIPGAHDAMAALVARNTGFLALYLSGAAYTASKGLPDLGIVTSTEVAERARDLVRATDLPVLVDIDTGFGGVLNVARTAVEMVEAKVAAVQIEDQQLPKKCGHLNGKKLVTTEELVQKIKAIKEVAPSLYIVARTDARGVEGLDEAIERANAYVKAGADAIFPEALQSEEEFRLFNSKVNAPLLANMTEFGKTPYYSAEEFANMGFQMVIYPVTSLRVAAKAYENVFTLIKETGSQKDALSNMQTRSELYETISYHDFEELDTGIAKTVLSEDQ | not soluble
8 | MAYHADSADLETKEILTWEGFGIANRELAQQIVDSNYTPDIIVAVARGGLVPAGALSYSMGIKLSDAINVEFYTDVNETLPDPVLLEPLLDTNSIRGKKVLVVDDVADSGRTLDLVLKLLENHGAEVRSAVIYAKSRSIVAPNYIWKRTDEWIVFPWSAEPPVTKA | not soluble
